Assay results from PMC2213610.

Biological target: VASP, endogenous in human endothelial cells (human (endogenous in EA.hy926 and ECV304)) (UniProt P50552)
Assay: co-IP

Sequence of VASP, endogenous in human endothelial cells (human (endogenous in EA.hy926 and ECV304)) (P50552 whole entry): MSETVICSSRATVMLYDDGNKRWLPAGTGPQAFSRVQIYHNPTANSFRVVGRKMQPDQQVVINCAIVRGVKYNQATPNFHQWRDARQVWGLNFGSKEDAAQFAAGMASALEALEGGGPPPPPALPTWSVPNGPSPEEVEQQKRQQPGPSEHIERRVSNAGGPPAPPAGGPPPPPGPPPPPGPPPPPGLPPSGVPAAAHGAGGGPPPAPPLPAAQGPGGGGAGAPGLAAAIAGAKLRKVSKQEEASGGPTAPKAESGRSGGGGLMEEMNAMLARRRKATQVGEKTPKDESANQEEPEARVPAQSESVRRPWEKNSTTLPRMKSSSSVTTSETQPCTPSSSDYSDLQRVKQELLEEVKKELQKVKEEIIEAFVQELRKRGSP

Work on “αII-spectrin (SPCN), endogenous in human endothelial cells, Q13813 1-2472” yielded a percent of cellular SPCN coprecipitated greater than 70%.
